In experiment [1] the target is recombinant gain-of-function GPIbα protein fragment (amino acids 1-285 with amino acid substitutions G233V and M239V) (human) (UniProt P07359). In words: latex particle agglutination (turbidimetry, 570 nm); inhibition of VWF-GPIbα complex formation by 10 µg/ml AK2 in normal plasma pool.
The target is the same in experiment [2]. In words: latex particle agglutination (turbidimetry, 570 nm); inhibition of VWF-GPIbα complex formation by 20 µg/ml AK2 in normal plasma pool.
For experiment [3], the target named is T1, von Willebrand factor (VWF) in plasma (human, UniProt P04275 764-2813).
T1 construct: mature; Native multimeric VWF present in plasma, not purified; The number of monomers per multimer varies; also called VWF protein
The experiment can be described thus: latex particle agglutination, turbidimetry at 570 nm. The protocol: The sample used was human citrated plasma from six different donors. 60 μl of sample were mixed with 20 μl of plasma containing VWF (91% of norm VWF, control plasma N, Siemens Healthcare Diagnostics Products GmbH, Marburg, Germany), 13 μl of a solution containing a recombinant gain-of-function GPIbα protein fragment (amino acids 1-285 with amino acid substitutions G233V and M239V; 8.4 μg/ml) and 70 μl of an NaCl buffer and incubated for two minutes. Subsequently, 40 μl of a latex particle reagent containing latex particles coated with anti-GPIbα antibodies were added to the assay mix.
Absorbance at 570 nm of the reaction mixture was measured turbidimetrically. Binding of VWF to GPIbα and binding of the GPIbα protein to the latex particles result in particle agglutination. This agglutination leads to an increase in absorbance, the maximum rate of which is determined (mU/min).

Turning to anti-GPIb antibody AK2, the Rate of agglutination turned out to be 266 mU/min in experiment [1] and 133 mU/min in experiment [2].

B1: recombinant gain-of-function GPIbα protein fragment (amino acids 1-285 with amino acid substitutions G233V and M239V) (receptor)
chain: HPICEVSKVASHLEVNCDKRNLTALPPDLPKDTTILHLSENLLYTFSLATLMPYTRLTQLNLDRCELTKLQVDGTLPVLGTLDLSHNQLQSLPLLGQTLPALTVLDVSFNRLTSLPLGALRGLGELQELYLKGNELKTLPPGLLTPTPKLEKLSLANNNLTELPAGLLNGLENLDTLLLQENSLYTIPKGFFGSHLLPFAFLHGNPWLCNCEILYFRRWLQDNAENVYVWKQVVDVKAVTSNVASVQCDNSDKFPVYKYPGKGCPTLGDEGDTDLYDYYPEEDTE
Regarding B1, the binding result in experiment [3] was “binds”.
